# Measured values as given in the DeepSol protein solubility set.
# Test: soluble on expression in E. coli; label from the status in PepcDB or PDB records
row,Sequence,soluble on expression in E. coli
1,MGSDKIHHHHHHMLKKESIHFINKNRSLIVCEDNFVYLLPCIQLRNWISNFTISFPNQTIISDNYTIIPHGSVTLVFFYDATGLHSLLFGPTTKPKTVGNIANRCDVILIIEFQPAGFFPLIGIQQSELIDKVVPFSIINTSLDLEIKKIFNESLSIDKLILKLEELLISNIKIEYSYEFILAIQLIIQNSGNISSQEISKKVFYSSRHLNRLFNQYLGLSMKSFSRLVRINKSIKLLNNNKTSLMSICNELGFYDIPHFIKDFKIVCGITPQKYRANMSDFYSEIAKF,not soluble
2,SMSGMKSSKSKDVLSAAEVMQWSQSLEKLLANQTGQNVFGSFLKSEFSEENIEFWLACEDYKKTESDLLPCKAEEIYKAFVHSDAAKQINIDFRTRESTAKKIKAPTPTCFDEAQKVIYTLMEKDSYPRFLKSDIYLNLLNDLQA,soluble
3,MSGNTVKLNVGGTVFETLKSTLTKHDGFFKALIETDVPAEKDDSNCFFIDRSPKHFETVLNYMRSGDVVLPDSKKDMLELKKEAEYYLLSNLAKLCQPPTDNFKTCTPEELMRVVANTDKKVIMINYLTYNGELVFYPWGFNLVHFLIQNRDYVEDVYFRRTESQYPEDGPFPNEKPYWTFLVYNSTRSGRRPFRHTVDLEDCMGHM,not soluble
4,MGSDKIHHHHHHVFDALVIGSGPAGLAIAAELAQRGLKVQGLSPVDPFHPWENTYGIWGPELDSLGLEHLFGHRWSNCVSYFGEAPVQHQYNYGLFDRAQLQQHWLRQCEQGGLQWQLGKAAAIAHDSHHSCVTTAAGQELQARLVVDTTGHQAAFIQRPHSDAIAYQAAYGIIGQFSQPPIEPHQFVLMDYRSDHLSPEERQLPPTFLYAMDLGNDVYFVEETSLAACPAIPYDRLKQRLYQRLATRGVTVQVIQHEEYCLFPMNLPLPDLTQSVVGFGGAASMVHPASGYMVGALLRRAPDLANAIAAGLNASSSLTTAELATQAWRGLWPTEKIRKHYIYQFGLEKLMRFSEAQLNHHFQTFFGLPKEQWYGFLTNTLSLPELIQAMLRLFAQAPNDVRWGLMEQQGRELQLFWQAIAAR,not soluble
5,MEMYFKRMKDEWTGLVEQADPPIRAKAAEIAVAHAHYLSIEFYRIVRIDPHAEEFLSNEQVERQLKSAMERWIINVLSAQVDDVERLIQIQHTVAEVHARIGIPVEIVEMGFRVLKKILYPVIFSSDYSAAEKLQVYHFSINSIDIAMEVMTRAFTFSDSLEHHHHHH,not soluble
6,MPKNDLLLRSLRGEPIGRFPVWLMRQAGRYMPEYRKIRNRVKNFLELCKNVDLATEISLLPLKILGVDAIIIFSDILVPLEPLGVKVEFVEGEGPKLSWSGKVSDLKKYDPSQNAYVYEIIKRVKEAQDEVPVIGFAGAPFTLLSYLIEGGASKDFKSTKLFMWENPKEYKRLMDILTETVLAYLKEQIKAGADVVQIFDSWVNNLSLEDYGEYVYPYVNYLISELKDFSDTPVIYFFRGSSSFIDLAVDYRADALSVDWSVDIPELFKIYDKGFQGNLEPAVLYASEEVIEEKTLGLLRRIPVKTRYVFNLGHGLAPDMELEKVKYLVDLVKSFPLT,soluble
7,MGSDKIHHHHHHMAGYNTYVVGKWHVGTKSVPEDYGIKGHNFDGYGYPGSGVYKNLVFNQPPTHSNRYKEWLEEKGYEIPEVSRAYFGDNPHLRVQELCGLLSGAKDQTIPYFIIDEAKKYIQESLDEGKPFFAWINFWGPHTPCIVPEPYYSMYRKEDVVLDKSFFTPLEGKPDHFRTISKMWGMWEASEDHWKEVITKFWGYITLIEDDNLVYLHDLTSTVFDLANQKVPESFEGQSVLPIMRQHQDNQRKGVLGQLAGHFVYFEQRMWRRKDYKLVFNATDVCELYNIRNDPEEMHNLFYDPQYNRIKKEMLEEMRAEMKRLNDPLENWVYRIIDEI,not soluble
8,MSVIIISRNQEKLDRAAKKIELNTGGKVKVIAADFTKDDIYGHITENIEGLDIGVLVNNVGILPSQIPCKLLETSDLEERIYDIVNCNVKSMVKMCRIVLPGMQQRRRGVILNVSSGIAKIPCPIYTLYAASKVFVERFSQGLQAEYISKGIIIQTVAPFGVSTAMTGHQKPDMVTFTAEEFVRSSLKYLKTGDQTYGSITHTLLGRIVQSIPTWVLQSETFQHHFQEYVKNRDRR,not soluble
9,MAKLLITGGCGFLGSNLASFALSQGIDLIVFDNLSRKGATDNLHWLSSLGNFEFVHGDIRNKNDVTRLITKYMPDSCFHLAGQVAMTTSIDNPCMDFEINVGGTLNLLEAVRQYNSNCNIIYSSTNKVYGDLEQYKYNETETRYTCVDKPNGYDESTQLDFHSPYGCSKGAADQYMLDYARIFGLNTVVFRHSSMYGGRQFATYDQGWVGWFCQKAVEIKNGINKPFTISGNGKQVRDVLHAEDMISLYFTALANVSKIRGNAFNIGGTIVNSLSLLELFKLLEDYCNIDMRFTNLPVRESDQRVFVADIKKITNAIDWSPKVSAKDGVQKMYDWTSSILEHHHHHH,soluble
10,MSPESSNQTTSLSSFLLKCAFPDGTVPINIAPQSLSLSSSPGSYDGDQFSPLMKQHKSRKYDSCTISDDLHDEMKRLKKKEEAFKTALCGFQRRGQKCIYGEQCKFAHSVHELRFTQAKKTHRNYKTVLCDKFSTTGYCKYGARCQFIHRALGSTSTTESAEMADFKLNVESDLSRAFALDYTSFLPNWHCSALLH,not soluble
11,MDYTKYLAGRANWIKGSALADVMKKASELQKKGVKLISLAAGDPDPELIPRAVLGEIAKEVLEKEPKSVMYTPANGIPELREELAAFLKKYDHLEVSPENIVITIGGTGALDLLGRVLIDPGDVVITENPSYINTLLAFEQLGAKIEGVPVDNDGMRVDLLEEKIKELKAKGQKVKLIYTIPTGQNPMGVTMSMERRKALLEIASKYDLLIIEDTAYNFMRYEGGDIVPLKALDNEGRVIVAGTLSKVLGTGFRIGWIIAEGEILKKVLMQKQPIDFCAPAISQYIALEYLKRGYFEKYHLEGALLGYKEKRDIMLKALENHLPNAEFTKPIAGMFVMFFLPEGADGISFANELMEREGVVVVPGKPFYTDESGKNAIRLNFSRPSKEEIPIGIKKLAKLYKEKFGE,soluble
12,VSQLLPSDFNLRYPANSTSIVPISDLSITQIEADPNDSTIAVLTIQVIIRVNSFNNSLNFGIATYTQKIPGFLNQDSGRIALGFRDLALNANDLIIFNGIKGDTGVDAAIQSGKDNFTINSPIGFENIIFSIQDFDSTSTNASRGELGFVIKGEFNGQILLSSTINQKIVVSEFLAENLAILNAATEFGVILKPEFNLNSNRPTASQASKDNFSINFSQAPDPR,soluble
13,MGKSSNIVFDRIKEERQMLSFFKIFQRADLSSDCMRALPYSFISKVSEKDFSYKMVIRAQWGKTWDVEVSKNPTYYYIETRGWDLFVSDNALGQNEFITFTHRGNMVFHVNIYEQNGLEMRKPRKFQTMGPSSGIKKEEGENSLIDVKKEEESDESPGRAEFLVRKKKTEDSKSSKKKMTRNKVKKKSKSKSKQVLDGVPEFKITIRKSYLKFLAIPKHFVDDHIPNKSKIFTIRHPNGGSWKVLCLVREIRTIFSGGYSKLAREFPLMVGDKCTFKLIKPFEFVLLTSKKNREKMDQCMID,soluble
14,MGSDKIHHHHHHLDRYPQEELSDGSFWKTPDDANKVVSDLYGYLSTWDQDNDINSDNATMGIKWAAGNVSKGIYDPADQGWSGDYANVRQCNLILSKIDEIPDYPEADKTKALGQVYFFRAYIYFNLIRSFGDVPYIDKPLDLKDMEGITRMPRAEVYEKIMADFDKAIAALPTEWGASDYGRVTKGAAMAMKARAALYYGNWDTAATEAKNVMDLGLYELYDKDNTGKYAELFWEKADGCDEFILVTQFNYPDKTHYLMGWECFPTKGWGGMNPTQSLVDAFEDSEGAPISKSKIYDPTDPFKNRDPRLEVDILHDGEEMYGVTIKVAPLASSGSTGINQHNDATETGYYGQKWLDPSLDPLSDGWNMGKDWVHIRYAEVLLTYAEAKNELQGLDPEAFDAVNQVRRRVGMPELQNTDPSKPTYCATQDDLRQRIRNEWRVEFCLEGGKRMWDIRRWGIAKDVLNAPFEGLKYKIVDNPNDPDKKVDGGKMCILYQGDPIILSGSRYSDNNYLFPVPQSEIDLNPALTQNPGY,not soluble
15,MGSDKIHHHHHHFDKIPTNPNLYHDVSSFSTADLTGKVQKIKLGSKFKIRSLITNKAKTPVFKLSNGRFIRASHDNVYEDIVLRRENVKGSYWLKKTFTVYQTPYVAGTKIANTKLTNYNKVHISQKAITKHGIYLKADGQGWINEKDLTVQDNRMEKVQALLTRKYNKPNYSIYVKQLKTRKTAGINEDKSMYSASVTKLPILYFIEKQIKDGRVKLTDKFKYIEQVNQFKGAYKVEGSGEMPKKADNKYYTVDSLLKAVTQHSDNVASNILGYYIAHQYDKTYQKTVLRVADVKWNMESRNVSSKTAANVMEALYSQKSPVISYLTSTEFDNTRISRDIAVPVAHKVGDAYDYKHDVAIIYADQPFILSVFTDKSSYEDISTIADDVYGILK,not soluble
16,MKGRTMNKPFITQAQLALYKYQPSSKYFGQSMAVIAQSEFVEFAKINKSENVIDCFSFFWNRRIKHDIWLISFSDNSEMVIKESLKDGHKIYKFEFCEIVDNCNFDDVFV,not soluble
17,SLVRNGRIAFAGPESDLPDDLSTADETTDCGGRWITPALIDCHTHLVFGGNRAMEFEMRLNGATYEEIAKAGGGIVSSVRDTRALSDEVLVAQALPRLDTLLSEGVSTIEIKSGYGLDIETELKMLRVARRLETLRPVRIVTSYLAAHATPADYKGRNADYITDVVLPGLEKAHAEGLADAVDGFCEGIAFSVKEIDRVFAAAQQRGLPVKLHAEQLSNLGGAELAASYNALSADHLEYLDETGAKALAKAGTVAVLLPGAFYALREKQLPPVQALRDAGAEIALATDCNPGTSPLTSLLLTMNMGATLFRMTVEECLTATTRNAAKALGLLAETGTLEAGKSADFAIWDIERPAELVYRIGFNPLHARIFKGQKVSP,not soluble
18,MGSDKIHHHHHHMTYYESGLLRARWASWQDARAGRTAQANARWGWIKAPGERGPILWMQSFSDADQQRLGIELAKAMAEKRRDLRMVMTFETEYPALLEQHTEGAERLGYGFGPCDHPQAVGRMLERLTPLRYLALGRAPRPRLAAALGRRKIPAVLMAADPGLQIPAPLEAVYPRDARQAGAWAGRGVTEAVQEPVDFATLFTIAQVDPNFRAMISGTDEGLLWWAQGLSAAQWAGWRRAWAASPLSRHGLLFLGGTGAPTDLPRLSAWQRAPLPAGAVVVADDDRWYPALSAGAQAVHLQKASPMLQWQVYAGSRPISVSPGVTLNAAEPLDADTILTLEEPAQILDHWQALRGDAMAARQRGDATRRIFWQERRHAGERLPEFLQRVFDW,not soluble
19,MSLRDEFSLIRSISPANVHQPSLHVGIGDDAAIYEGAPEMEEVLCVDTMVEEIHFRRDTLTPFQIGYKSLAINISDLAAMGATPKFYLVSIAVPPQWSDREIKTLYRGMAECAAPYRMDLIGGDTVSTNAKLVVTVTAVGHVPKGTRLLRQRARPGDVVFLTGTVGQSAAGLELLNKKGLHGPFTEEEELLVLAHQQPQPQVEAGHLFARSGYRIALNDVSDGVASEANELAEASKVKLVLKANTIPLHPAMETFSKEQQLEWALFGGEDFQLIGTAAVDAFASLQQLAIQRGISLTEIGYVEAGSPVVELEEGTARSVLKKSGYNHFAKEGHHHHHH,soluble
20,MAHHHHHHMSLADPHPLEAATTPASSLSNSIRLALLPASMKLPRDKSSSPELLAVFLPPDFCCMSVKSSTQNSSLFSSGISTVSPGRGCSVMEWRAIMQPVLLSLFKHWSVAAIRPGLFRRFCVGDVLFARERKLANSTPSAPCVNFPHRSTRVGAPRALRADCSSSSSSCKERKRHEWQDSRASESQEASPLLETSLPLLLWSSG,soluble
